{"source": "paper PMC8894873", "origin": "cited, not measured here", "target": "Glu35 (UniProt position 53, CAAKFESNFNT)", "assay": "not stated (a cited reference title indicates two-dimensional 1H NMR)"}
{"substance": "Lysozyme (lysozyme C, presumably hen egg-white) (Gallus gallus (inferred; the article says only 'lysozyme'))", "values": [{"measurement": "pKa", "value": 6.3}]}
